# In patent US20230120736A1, “ANTI-CD98 ANTIBODIES AND ANTIBODY DRUG CONJUGATES” (AbbVie Inc., priority 2016, published 2023):
# T1: human CD98 (Homo sapiens, UniProt P08195)
# T1 sequence (P08195 1-630 isoform P08195-1): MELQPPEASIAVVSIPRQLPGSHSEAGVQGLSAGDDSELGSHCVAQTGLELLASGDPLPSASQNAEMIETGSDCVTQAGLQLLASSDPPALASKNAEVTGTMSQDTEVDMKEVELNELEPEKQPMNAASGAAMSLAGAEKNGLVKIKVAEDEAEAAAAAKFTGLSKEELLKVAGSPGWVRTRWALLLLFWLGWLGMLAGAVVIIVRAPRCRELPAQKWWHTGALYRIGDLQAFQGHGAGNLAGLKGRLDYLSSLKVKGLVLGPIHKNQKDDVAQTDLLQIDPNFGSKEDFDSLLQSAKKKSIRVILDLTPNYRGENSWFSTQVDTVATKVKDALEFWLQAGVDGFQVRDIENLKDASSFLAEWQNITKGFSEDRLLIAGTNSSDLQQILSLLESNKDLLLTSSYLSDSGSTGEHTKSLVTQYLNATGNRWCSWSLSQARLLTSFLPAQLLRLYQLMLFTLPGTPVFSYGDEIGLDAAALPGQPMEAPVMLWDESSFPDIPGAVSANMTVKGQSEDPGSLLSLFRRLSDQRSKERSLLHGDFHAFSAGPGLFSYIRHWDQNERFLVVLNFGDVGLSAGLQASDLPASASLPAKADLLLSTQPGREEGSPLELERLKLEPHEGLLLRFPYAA
# T2: human CD98 ECD (Homo sapiens, UniProt P08195)
# T2 construct: Human CD98 ECD with C-terminal His-tag
# T2 sequence (P08195 with tags, fused parts or gaps): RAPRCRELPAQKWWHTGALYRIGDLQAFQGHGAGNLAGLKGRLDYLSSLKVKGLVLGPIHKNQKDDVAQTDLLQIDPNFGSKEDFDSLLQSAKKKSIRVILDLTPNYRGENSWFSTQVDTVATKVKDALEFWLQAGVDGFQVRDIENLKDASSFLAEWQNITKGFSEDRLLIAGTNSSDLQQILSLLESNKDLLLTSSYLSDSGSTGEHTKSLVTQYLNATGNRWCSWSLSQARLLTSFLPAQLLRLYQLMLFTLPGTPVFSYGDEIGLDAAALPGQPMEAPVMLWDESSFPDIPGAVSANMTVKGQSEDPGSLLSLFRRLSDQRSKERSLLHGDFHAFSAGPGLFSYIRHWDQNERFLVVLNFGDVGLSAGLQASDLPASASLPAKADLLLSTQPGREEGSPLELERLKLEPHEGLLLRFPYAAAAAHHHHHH
# B1: huAb101: "heavy chain variable sequence of huAb101 is provided in SEQ ID NO: 106"; "light chain variable sequence ... in SEQ ID NO: 107" (antibody, V domains shown)
# VH: EVQLVESGGGLVKPGGSLRLSCATSGFTFIDYYMSWVRQAPGKGLEWLGFIRNKANRYTTEYSASVKGRFTISRDNSKSILYLQMNSLKTEDTAVYYCTRDRPAWFVYWGQGTLVTVSS
# VL: DIVMTQTPLSLPVTPGEPASISCKSSQSLLYSSNQKNYLAWYLQKPGQSPQLLIYWASTRESGVPDRFSGSGSGTDFTLKISRVEAEDVGVYYCQQYYSYPYTFGGGTKVEIK
# B2: huAb107: "heavy chain variable sequence of huAb107 is provided in SEQ ID NO: 114"; "light chain variable sequence ... in SEQ ID NO: 112" (antibody, V domains shown)
# VH: EVQLVESGGGLVQPGGSLRLSCAASGFTFSDYTMAWVRQAPGKGLEWVATIIYSGRGTYYRDAVKGRFTISRDNAKNTLYLQMNSLRAEDTAVYYCARQSDDTYYYWGYFDYWGQGTMVTVSS
# VL: DIVMTQTPLSLPVTPGEPASINCKSSQSLLFSGNQKNYLAWYLQKPGQSPQLLIYWASTRQSGVPDRFSGSGSGTDFTLKISRVEAEDVGIYYCQQYYDVPYTFGQGTKLEIK
# B3: huAb103: "heavy chain variable sequence of huAb103 is provided in SEQ ID NO: 109"; "light chain variable sequence ... in SEQ ID NO: 107" (antibody, V domains shown)
# VH: EVQLVESGGGLVKPGGSLRLSCATSGFTFIDYYMSWVRQAPGKGLEWLGFIRNKAYGYTTEYSASVKGRFTISRDNSKSILYLQMNSLKTEDTAVYYCTRDRPAWFVYWGQGTLVTVSS
# VL: DIVMTQTPLSLPVTPGEPASISCKSSQSLLYSSNQKNYLAWYLQKPGQSPQLLIYWASTRESGVPDRFSGSGSGTDFTLKISRVEAEDVGVYYCQQYYSYPYTFGGGTKVEIK
# B4: huAb105: "heavy chain variable sequence of huAb105 is provided in SEQ ID NO: 111"; "light chain variable sequence ... in SEQ ID NO: 112" (antibody, V domains shown)
# VH: EVQLVESGGGLVQPGGSLRLSCAASGFTFSDYTMAWVRQAPGKGLEWVATIIYSGRGTYYRDAVKGRFTISRDNAKNTLYLQMNSLRAEDTAVYYCARQSDHTYYYWGYFDYWGQGTMVTVSS
# VL: DIVMTQTPLSLPVTPGEPASINCKSSQSLLFSGNQKNYLAWYLQKPGQSPQLLIYWASTRQSGVPDRFSGSGSGTDFTLKISRVEAEDVGIYYCQQYYDVPYTFGQGTKLEIK
# B5: huAb109: "heavy chain variable sequence of huAb109 is provided in SEQ ID NO: 116"; "light chain variable sequence ... in SEQ ID NO: 117" (antibody, V domains shown)
# VH: EVQLVESGGGLVQPGGSLRLSCAASGFTFSDYTMAWVRQAPGKGLEWVATIIYDARGTYYRDAVKGRFTISRDNAKNTLYLQMNSLRAEDTAVYYCARQSDDTYYYWGYFDYWGQGTMVTVSS
# VL: DIVMTQTPLSLPVTPGEPASINCKSSQSLLFSGNQKNYLAWYLQKPGQSPQLLIYWASTRQSGVPDRFSGSGSGTDFTLKISRVEAEDVGIYYCQQYYSSPYTFGQGTKLEIK
# What was measured:
# human CD98 = target: T1, human CD98; assay: Binding of humanized antibodies to human CD98; conditions: humanized framework engineered antibodies
# [1] = Conjugation of anti-CD98 mAbs with Bcl-xL inhibitor synthons (precipitation, DAR, recovery, aggregation); conditions: Method E
# Method: Method A. A solution of BOND-BREAKER tris(2-carboxyethyl)phosphine (TCEP) solution (10 mM, 0.017 mL) was added to a solution of antibody (10 mg/mL, […]) preheated to 37° C. The reaction mixture was kept at 37° C. for 1 hour. The solution of reduced antibody was added to a solution of synthon (3.3 mM, 0.160 mL in DMSO) and gently mixed for 30 minutes. The reaction solution was loaded onto a desalting column (PD10, washed with DPBS 3x before use), followed by DPBS (1.6 mL) and eluted with additional DPBS (3 mL). The purified ADC solution was filtered through a 0.2 micron, low protein-binding 13 mm syringe-filter and stored at 4° C.
# Method E. A solution of BOND-BREAKER tris(2-carboxyethyl)phosphine (TCEP) solution (10 mM, 0.017 mL) was added to the solution of antibody (10 mg/mL, 1 mL) at room temperature. The reaction mixture was heated to 37° C. for 75 minutes. The solution of reduced antibody cooled to room temperature and was added to a solution of synthon (10 mM, 0.040 mL in DMSO) followed by addition of boric buffer (0.1 mL, 1M, pH 8). The reaction solution was let to stand for 3 days at room temperature, loaded onto a desalting column (PD10, washed with DPBS 3×5 mL before use), followed by DPBS (1.6 mL) and eluted with additional DPBS (3 mL). The purified ADC solution was filtered through a 0.2 micron, low protein-binding 13 mm syringe-filter and stored at 4° C.
# [2] = test system: cynomolgus monkey CD98 ECD; assay: Biacore surface plasmon resonance binding kinetics (anti-Fc capture); conditions: cyCD98 ECD
# Chain of cynomolgus monkey CD98 ECD (as listed by the source): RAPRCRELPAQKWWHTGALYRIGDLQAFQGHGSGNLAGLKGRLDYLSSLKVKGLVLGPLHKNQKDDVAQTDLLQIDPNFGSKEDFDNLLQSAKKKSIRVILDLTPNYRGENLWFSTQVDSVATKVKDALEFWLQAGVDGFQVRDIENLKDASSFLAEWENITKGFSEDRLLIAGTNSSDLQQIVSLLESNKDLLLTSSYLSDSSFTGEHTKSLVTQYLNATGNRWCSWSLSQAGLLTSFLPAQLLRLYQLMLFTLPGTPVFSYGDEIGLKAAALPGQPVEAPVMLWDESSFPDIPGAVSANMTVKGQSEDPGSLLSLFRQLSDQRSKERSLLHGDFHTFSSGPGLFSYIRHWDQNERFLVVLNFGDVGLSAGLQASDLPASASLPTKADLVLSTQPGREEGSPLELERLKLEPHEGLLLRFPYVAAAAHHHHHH
# Method: (§1) The binding kinetics of these purified mouse and rat monoclonal anti-CD98 antibodies for purified recombinant CD98 protein (extracellular domain, ECD) were determined by surface plasmon resonance-based measurements made on Biacore T100/T200 instruments (GE Healthcare, Piscataway, N.J.) at 25° C. using an anti-Fc capture assay approach. Binding kinetic measurements were made in the assay buffer HBS-EP+: 10 mM Hepes, pH 7.4, 150 mM NaCl, 3 mM EDTA, 0.05% Tween 20). For example, approximately 8000 RU of anti-Fc (species specific) polyclonal antibody (Thermo Fisher Scientific Inc., Rockford, Ill.) diluted in 10 mM sodium acetate (pH 4.5) was directly immobilized across a CM5 research grade biosensor chip using a standard amine coupling kit according to manufacturer's instructions and procedures at 25 μg/ml. Unreacted moieties on the biosensor surface were blocked with ethanolamine. The test antibody to be captured as a ligand was diluted in running buffer to ˜0.5 μg/mL and injected over anti-Fc surface at a flow rate of 10 μL/min. CD98 binding and dissociation were observed under a continuous flow rate of 80 μL/min. Human and cynomolgus monkey CD98 ECDs, both with a C-terminal His-tag, are used for this study (Table 3). After each cycle the anti-Fc capture surface was regenerated using 10 mM Glycine-HCl, pH 1.5. During the assay, all measurements were referenced against the capture surface alone (i.e., with no captured test antibody) and buffer-only injections (no antigen) were used for double referencing. For kinetic analysis, rate equations derived from the 1:1 Langmuir binding model were fitted simultaneously, globally and with mass transfer term included to multiple referenced antigen binding curves using Biacore T100/T200 Evaluation software.
# (§2) The in vitro binding activities of the recombinant anti-CD98 chimeric mAbs were measured against both recombinant CD98 extracellular domain proteins (ECDs) and CD98-expressing cells. Briefly, binding kinetics of anti-CD98 chimera mAbs for human and cynomolgus CD98 ECDs were determined by surface plasmon resonance-based measurements as described in Example 4. Table 10 reported the association and dissociation rate constants for CD98 binding, ka (M^−1 s^−1) and kd (s^−1), and the equilibrium dissociation constant KD (M) of the interaction between antibodies and the target antigen. Binding of anti-CD98 chimera mAbs for CD98 on cell surface was evaluated by flow cytometry against CHO-K1 cell line stably transfected to express human CD98 and 3T12 cell line stably transfected to express cynomolgus monkey CD98.
# (§3) The binding kinetics of the recombinant anti-CD98 chimeric antibodies for purified recombinant CD98 protein (extracellular domain, ECD) were determined by surface plasmon resonance-based measurements, as described in the Example 4.
# human CD98 ECD = target: T2, human CD98 ECD; assay: as above; conditions: huCD98 ECD
# Method: as §1, §2, §3
Molecule,binding to human CD98 (human CD98),% Aggregates by SEC ([1]; conjugation with synthon CZ) [%],DAR by MS ([1]; conjugation with synthon CZ),% Aggregates by SEC ([1]; conjugation with synthon TX) [%],DAR by MS ([1]; conjugation with synthon TX),ka [2] [M⁻¹ s⁻¹],kd [2] [s⁻¹],ka (human CD98 ECD) [M⁻¹ s⁻¹],kd (human CD98 ECD) [s⁻¹]
B1,maintained binding,1.8,4.5,0.3,3.5,30000,0.00067,290000,0.0018
B2,maintained binding,1.9,2.2,1.5,3.1,33000,8.7e-05,110000,3.8e-05
B3,maintained binding,15.9,4.4,0.9,3.8,31000,0.00044,180000,0.00059
B4,maintained binding,,1.2,0.6,1.7,38000,5.3e-05,140000,2.4e-05
B5,maintained binding,2.5,2.1,1.0,2.9,26000,0.00031,160000,0.00017
